Measured values reported in IntAct's records for PubMed 31515488.

B1: Protein DBF4 homolog B (Homo sapiens), Q8NFT6 (parent)
chain: MSEPGKGDDCLELESSMAESRLRAPDLGVSRCLGKCQKNSPGARKHPFSGKSFYLDLPAGKNLQFLTGAIQQLGGVIEGFLSKEVSYIVSSRREVKAESSGKSHRGCPSPSPSEVRVETSAMVDPKGSHPRPSRKPVDSVPLSRGKELLQKAIRNQGSISGGGSGGSSSLLTNARSWGVRILHVDEMMMHVQQLSLASLCVKKQQPKKPEGTCPAAESRTRKVARLKAPFLKIEDESRKFRPFHHQFKSFPEISFLGPKDASPFEAPTTLGSMHHTRESKDGEPSPRSAAHTMPRRKKGYCECCQEAFEELHVHLQSAQHRSFALEAHLYAEVDRIIAQLSHSFADIPFQAGLPRWSGSPASDCDPLCPETLHPHQPSHPRAASPRIRKEDSCQASVTQGRAAGQQRWTESLDGVMGPPASHTCVSATTLLPALPKGSREQGCLCPCPASFTQSHLVTSLALLPGEWSPAEDMPLHPSQENSFAPADIPVKGPLLFPEARPWLMSARCWVRPFPFVTWGCLIPHDTTPLHEEVSPCPCLRLGYLYLLLTQSLWCRVRVPSLSTAGPIPRTSHPCTLAFPSYLNDHDLGHLCQAKPQGWNTPQPFLHCGFLAVDSG
partner: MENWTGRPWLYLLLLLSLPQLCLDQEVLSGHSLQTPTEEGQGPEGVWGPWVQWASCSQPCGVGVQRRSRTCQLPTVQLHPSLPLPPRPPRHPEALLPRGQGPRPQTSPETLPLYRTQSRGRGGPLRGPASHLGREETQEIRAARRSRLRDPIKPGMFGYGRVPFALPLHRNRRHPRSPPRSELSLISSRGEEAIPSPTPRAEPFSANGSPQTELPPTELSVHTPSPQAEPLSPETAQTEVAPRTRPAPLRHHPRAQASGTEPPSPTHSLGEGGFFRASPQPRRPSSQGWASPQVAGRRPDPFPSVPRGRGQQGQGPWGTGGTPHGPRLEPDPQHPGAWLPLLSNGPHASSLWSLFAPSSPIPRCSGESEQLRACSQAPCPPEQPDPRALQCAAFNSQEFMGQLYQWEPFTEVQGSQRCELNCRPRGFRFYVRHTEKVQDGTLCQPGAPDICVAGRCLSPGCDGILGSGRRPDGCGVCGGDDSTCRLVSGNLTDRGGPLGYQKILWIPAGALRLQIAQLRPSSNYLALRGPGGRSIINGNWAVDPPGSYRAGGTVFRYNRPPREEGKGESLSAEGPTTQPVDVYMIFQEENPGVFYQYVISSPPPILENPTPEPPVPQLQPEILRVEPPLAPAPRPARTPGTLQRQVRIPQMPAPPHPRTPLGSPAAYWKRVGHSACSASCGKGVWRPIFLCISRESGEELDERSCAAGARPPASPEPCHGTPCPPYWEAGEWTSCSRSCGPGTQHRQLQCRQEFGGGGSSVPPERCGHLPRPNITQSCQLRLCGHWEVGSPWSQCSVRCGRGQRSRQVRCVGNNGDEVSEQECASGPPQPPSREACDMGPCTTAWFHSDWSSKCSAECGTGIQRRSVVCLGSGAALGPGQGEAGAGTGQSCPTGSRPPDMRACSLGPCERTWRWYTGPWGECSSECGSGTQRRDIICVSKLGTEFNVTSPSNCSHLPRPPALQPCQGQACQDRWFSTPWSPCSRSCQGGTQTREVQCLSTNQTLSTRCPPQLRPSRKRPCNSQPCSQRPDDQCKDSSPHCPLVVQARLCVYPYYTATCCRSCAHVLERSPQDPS
B2: MIF4G domain-containing protein (Homo sapiens), A9UHW6 (parent)
chain: MGEPSREEYKIQSFDAETQQLLKTALKDPGAVDLEKVANVIVDHSLQDCVFSKEAGRMCYAIIQAESKQAGQSVFRRGLLNRLQQEYQAREQLRARSLQGWVCYVTFICNIFDYLRVNNMPMMALVNPVYDCLFRLAQPDSLSKEEEVDCLVLQLHRVGEQLEKMNGQRMDELFVLIRDGFLLPTGLSSLAQLLLLEIIEFRAAGWKTTPAAHKYYYSEVSD
B3: Low-density lipoprotein receptor class A domain-containing protein 1 (Homo sapiens), Q5T700 (parent)
chain: MNKVFPQGENGYTAAESKAHPGGEAGGGHLCCSRRGACLSASLLLLLATVAALIALVTILGLPSCTPGAQACITLTNRTGFLCHDQRSCIPASGVCDGVRTCTHGEDEDESLCRDVPQSLPHFLVAHCGDPASWIYSDQKCDGTNNCGDCSDELSPVTVCPPCGPGWWRCPSTFFKYCDCIPRHLCRDHVQHCSDWSDEYACPGP
partner: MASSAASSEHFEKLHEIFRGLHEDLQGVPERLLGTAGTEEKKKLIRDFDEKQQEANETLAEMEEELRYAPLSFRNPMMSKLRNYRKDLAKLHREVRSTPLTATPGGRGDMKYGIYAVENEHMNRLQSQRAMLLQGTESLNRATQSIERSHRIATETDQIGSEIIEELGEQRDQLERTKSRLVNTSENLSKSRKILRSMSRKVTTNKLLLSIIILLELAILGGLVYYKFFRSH
B4: UPF0193 protein EVG1 (Homo sapiens), Q9BZE7 (parent)
chain: MASQKQMEVVTKGTGFRRRPKTITYTPGTCELLRVMMKESKLTNIQQRHIMDIMKRGDALPLQCSPTSSQRVLPSKQIASPIYLPPILAARPHLRPANMCQANGAYSREQFKPQATRDLEKEKQRLQNIFATGKDMEERKRKAPPARQKAPAPELDRFEELVKEIQERKEFLADMEALGQGKQYRGIILAEISQKLREMEDIDHRRSEELRKGLATT
B5: Peroxisomal bifunctional enzyme (Homo sapiens), Q08426 (parent)
chain: MAEYTRLHNALALIRLRNPPVNAISTTLLRDIKEGLQKAVIDHTIKAIVICGAEGKFSAGADIRGFSAPRTFGLTLGHVVDEIQRNEKPVVAAIQGMAFGGGLELALGCHYRIAHAEAQVGLPEVTLGLLPGARGTQLLPRLTGVPAALDLITSGRRILADEALKLGILDKVVNSDPVEEAIRFAQRVSDQPLESRRLCNKPIQSLPNMDSIFSEALLKMRRQHPGCLAQEACVRAVQAAVQYPYEVGIKKEEELFLYLLQSGQARALQYAFFAERKANKWSTPSGASWKTASARPVSSVGVVGLGTMGRGIVISFARARIPVIAVDSDKNQLATANKMITSVLEKEASKMQQSGHPWSGPKPRLTSSVKELGGVDLVIEAVFEEMSLKKQVFAELSAVCKPEAFLCTNTSALDVDEIASSTDRPHLVIGTHFFSPAHVMKLLEVIPSQYSSPTTIATVMNLSKKIKKIGVVVGNCFGFVGNRMLNPYYNQAYFLLEEGSKPEEVDQVLEEFGFKMGPFRVSDLAGLDVGWKSRKGQGLTGPTLLPGTPARKRGNRRYCPIPDVLCELGRFGQKTGKGWYQYDKPLGRIHKPDPWLSKFLSRYRKTHHIEPRTISQDEILERCLYSLINEAFRILGEGIAASPEHIDVVYLHGYGWPRHKGGPMFYASTVGLPTVLEKLQKYYRQNPDIPQLEPSDYLKKLASQGNPPLKEWQSLAGSPSSKL
partner: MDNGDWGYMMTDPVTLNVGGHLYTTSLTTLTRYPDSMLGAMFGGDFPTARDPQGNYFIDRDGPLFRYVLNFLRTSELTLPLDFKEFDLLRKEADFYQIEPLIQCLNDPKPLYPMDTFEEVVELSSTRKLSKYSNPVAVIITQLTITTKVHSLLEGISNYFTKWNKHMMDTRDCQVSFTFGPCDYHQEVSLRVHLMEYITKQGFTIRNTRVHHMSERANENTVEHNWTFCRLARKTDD

Variants of: B1
Conditions: with atl4_human ADAMTSL4, Q6UY14

Variant | effect of a mutation on the interaction
L199S | with no effect

Variants of: B2
Conditions: with hgs_human HGS

Variant | effect of a mutation on the interaction
E160K | with no effect

Variants of: B3
Conditions: with vti1b_human VTI1B

Variant | effect of a mutation on the interaction
E108K | with no effect

Variants of: B4
Conditions: with ccdb1_human CCNDBP1, O95273
Chain of ccdb1_human CCNDBP1, O95273 (O95273 whole entry): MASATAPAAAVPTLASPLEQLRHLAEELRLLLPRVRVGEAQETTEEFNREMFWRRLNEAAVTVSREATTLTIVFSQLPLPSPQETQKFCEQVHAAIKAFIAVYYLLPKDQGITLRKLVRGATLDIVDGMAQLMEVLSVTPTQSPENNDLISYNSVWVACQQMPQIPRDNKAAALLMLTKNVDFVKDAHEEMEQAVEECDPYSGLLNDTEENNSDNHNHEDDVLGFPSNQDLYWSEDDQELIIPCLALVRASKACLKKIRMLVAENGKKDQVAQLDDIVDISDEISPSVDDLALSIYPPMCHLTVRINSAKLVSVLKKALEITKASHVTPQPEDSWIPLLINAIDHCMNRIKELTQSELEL

Variant | effect of a mutation on the interaction
M136L | with no effect

Variants of: B5
Conditions: with kctd6_human KCTD6, Q8NC69

Variant | effect of a mutation on the interaction
L715S | disrupting interaction strength
